Data: IntAct's records for PubMed 25416956

Key:
tfp11_human TFIP11 [1] = target: tfp11_human TFIP11 (UniProt Q9UBB9)
reep6_human REEP6 [2] = target: reep6_human REEP6 (UniProt Q96HR9)
ldaf1_human LDAF1 [3] = target: ldaf1_human LDAF1 (UniProt Q96B96)
praf1_human RABAC1 [4] = target: praf1_human RABAC1 (UniProt Q9UI14)
tm239_human TMEM239 [5] = target: tm239_human TMEM239 (UniProt Q8WW34)
praf1_human RABAC1 [6] = target: praf1_human RABAC1 (UniProt Q9UI14); remark: listed apart in the source
tfp11_human TFIP11 [7] = target: tfp11_human TFIP11 (UniProt Q9UBB9); remark: listed apart in the source
tm239_human TMEM239 [8] = target: tm239_human TMEM239 (UniProt Q8WW34); remark: listed apart in the source
reep6_human REEP6 [9] = target: reep6_human REEP6 (UniProt Q96HR9); remark: listed apart in the source
ldaf1_human LDAF1 [10] = target: ldaf1_human LDAF1 (UniProt Q96B96); remark: listed apart in the source
atrap_human AGTRAP = atrap_human AGTRAP (UniProt Q6RW13)
Sequence of atrap_human AGTRAP (Q6RW13 whole entry): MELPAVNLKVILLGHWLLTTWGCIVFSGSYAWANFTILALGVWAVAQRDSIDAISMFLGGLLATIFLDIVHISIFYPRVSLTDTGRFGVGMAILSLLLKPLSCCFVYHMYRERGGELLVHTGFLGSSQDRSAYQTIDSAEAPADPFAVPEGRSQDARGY

tfp11_human TFIP11 [11] = target: tfp11_human TFIP11 (UniProt Q9UBB9); remark: listed apart in the source
ldaf1_human LDAF1 [12] = target: ldaf1_human LDAF1 (UniProt Q96B96); remark: listed apart in the source
praf1_human RABAC1 [13] = target: praf1_human RABAC1 (UniProt Q9UI14); remark: listed apart in the source
reep6_human REEP6 [14] = target: reep6_human REEP6 (UniProt Q96HR9); remark: listed apart in the source
tm239_human TMEM239 [15] = target: tm239_human TMEM239 (UniProt Q8WW34); remark: listed apart in the source

Measured: effect of a mutation on the interaction

Sequence of tm239_human TMEM239 (Q8WW34 whole entry): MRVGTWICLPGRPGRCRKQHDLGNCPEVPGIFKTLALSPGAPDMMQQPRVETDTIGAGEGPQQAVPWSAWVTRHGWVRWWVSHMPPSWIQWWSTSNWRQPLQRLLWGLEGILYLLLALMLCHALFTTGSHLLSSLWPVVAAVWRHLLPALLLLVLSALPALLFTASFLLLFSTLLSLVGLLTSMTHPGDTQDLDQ
Sequence of ldaf1_human LDAF1 (Q96B96 whole entry): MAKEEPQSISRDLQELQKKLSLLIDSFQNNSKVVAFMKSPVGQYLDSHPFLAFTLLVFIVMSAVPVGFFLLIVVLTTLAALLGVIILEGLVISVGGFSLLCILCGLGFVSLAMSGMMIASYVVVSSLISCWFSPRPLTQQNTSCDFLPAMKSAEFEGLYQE
Sequence of praf1_human RABAC1 (Q9UI14 whole entry): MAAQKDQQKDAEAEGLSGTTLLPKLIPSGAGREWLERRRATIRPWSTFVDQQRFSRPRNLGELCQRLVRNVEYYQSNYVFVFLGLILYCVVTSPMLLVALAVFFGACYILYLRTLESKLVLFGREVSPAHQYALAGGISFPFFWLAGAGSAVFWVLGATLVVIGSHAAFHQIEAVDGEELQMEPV
Sequence of tfp11_human TFIP11 (Q9UBB9 whole entry): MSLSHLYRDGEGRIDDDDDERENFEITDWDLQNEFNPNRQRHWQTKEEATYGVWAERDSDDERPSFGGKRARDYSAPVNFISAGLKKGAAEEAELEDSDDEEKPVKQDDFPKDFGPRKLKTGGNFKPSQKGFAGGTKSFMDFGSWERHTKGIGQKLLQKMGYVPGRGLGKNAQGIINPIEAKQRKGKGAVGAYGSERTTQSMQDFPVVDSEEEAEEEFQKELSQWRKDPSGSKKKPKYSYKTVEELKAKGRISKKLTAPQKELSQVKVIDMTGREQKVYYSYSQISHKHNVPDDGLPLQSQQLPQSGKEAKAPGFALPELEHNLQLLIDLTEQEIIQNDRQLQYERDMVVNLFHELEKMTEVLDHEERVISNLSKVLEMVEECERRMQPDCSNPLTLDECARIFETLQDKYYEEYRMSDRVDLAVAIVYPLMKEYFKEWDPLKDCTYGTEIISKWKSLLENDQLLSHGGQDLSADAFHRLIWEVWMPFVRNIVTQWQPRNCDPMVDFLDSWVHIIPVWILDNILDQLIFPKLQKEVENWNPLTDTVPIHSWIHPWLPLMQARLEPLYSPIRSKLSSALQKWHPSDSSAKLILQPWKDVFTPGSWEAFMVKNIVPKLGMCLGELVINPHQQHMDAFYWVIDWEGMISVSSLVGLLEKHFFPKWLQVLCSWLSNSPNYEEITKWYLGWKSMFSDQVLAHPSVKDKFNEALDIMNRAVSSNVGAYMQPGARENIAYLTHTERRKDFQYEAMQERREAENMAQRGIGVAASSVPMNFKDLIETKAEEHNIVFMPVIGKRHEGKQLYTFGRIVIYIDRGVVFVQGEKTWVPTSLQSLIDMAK
Sequence of reep6_human REEP6 (Q96HR9 whole entry): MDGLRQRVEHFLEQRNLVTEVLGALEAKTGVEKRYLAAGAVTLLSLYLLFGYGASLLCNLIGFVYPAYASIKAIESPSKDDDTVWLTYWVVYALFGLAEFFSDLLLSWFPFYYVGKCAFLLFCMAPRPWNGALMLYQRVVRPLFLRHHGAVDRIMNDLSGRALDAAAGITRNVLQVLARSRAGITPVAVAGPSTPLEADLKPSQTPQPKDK

Atypical kinase COQ8A, mitochondrial (Homo sapiens), Q8NI60 E551K
disrupting interaction: tfp11_human TFIP11 [1] | reep6_human REEP6 [2] | ldaf1_human LDAF1 [3] | praf1_human RABAC1 [4] | tm239_human TMEM239 [5]

Atypical kinase COQ8A, mitochondrial (Homo sapiens), Q8NI60 G272V
disrupting interaction: praf1_human RABAC1 [6] | tfp11_human TFIP11 [7] | tm239_human TMEM239 [8] | reep6_human REEP6 [9] | ldaf1_human LDAF1 [10]

Atypical kinase COQ8A, mitochondrial (Homo sapiens), Q8NI60 R213W
disrupting interaction: atrap_human AGTRAP | tfp11_human TFIP11 [11] | ldaf1_human LDAF1 [12] | praf1_human RABAC1 [13] | reep6_human REEP6 [14] | tm239_human TMEM239 [15]
